Source: patent publication US20260116925A1 (ARIZONA BOARD OF REGENTS ON BEHALF OF ARIZONA STATE …, published 2026)

Target: T1, Cathepsin G
T1 sequence (P08311 21-244, species assumed, looked up): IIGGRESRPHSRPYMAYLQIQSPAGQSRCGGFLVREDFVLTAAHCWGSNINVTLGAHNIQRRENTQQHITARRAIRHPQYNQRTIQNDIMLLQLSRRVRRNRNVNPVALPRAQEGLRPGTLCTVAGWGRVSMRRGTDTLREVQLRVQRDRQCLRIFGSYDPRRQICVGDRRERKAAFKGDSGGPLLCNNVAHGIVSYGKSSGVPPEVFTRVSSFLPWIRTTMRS
Experiment: cell-based or functional assay

B1: recombinant Serpinb3a (mouse-derived), 6×His-tagged, produced in E. coli (other)
chain: HHHHHHMHLFAEATTKFTLELYRQLRESDNNIFYSPISMMTALAMLQLGAKGNTEKQIEKVLQFNETTKKTTEKSAHCHDEENVHEQFQKLMTQLNKSNDAYDLKAANSIYGAKGFPFVQTFLEDIKEYYQANVESLDFEHAAEESEKKINSWVESQTNGKIKDLFPNGSLNRSTIMVLVNAVYFKGQWNHKFDEKHTTEEKFWLNKNTSKPVQMMKQNIEFNFMFLEDVQAKIVEIPYKGKELSMIVLLPVEINGLKQLEEQLTADKLLEWTRAENMHMTELYLSLPRFKVDEKYDLPIPLEHMGMVDAFDPQKADFSGMSSTQGLVVSKVLHKSFVEVNEEGTEAAAATGVEVSLTSAQIAEDFCCDHPFLFFIIHRKTNSILFFGRISSP
  inhibitory stoichiometry (A/A0 (405 nm) vs. time): 1 inhibitor:enzyme ratio
